How the values were obtained:
[1] = molecular target: recombinant penicillin binding protein 2a (PBP2a) (Staphylococcus aureus); assay: SPR (BIACORE), rPBP2a coupled on CM5 chip, antibody flowed at 0 to 5 nM; purified antibody
[2] = molecular target: recombinant penicillin binding protein 2a (PBP2a) (Staphylococcus aureus); assay: SPR (BIACORE), rPBP2a coupled on CM5 chip, antibody flowed at 0 to 5 nM; culture supernatant 1
[3] = molecular target: recombinant penicillin binding protein 2a (PBP2a) (Staphylococcus aureus); assay: SPR (BIACORE), rPBP2a coupled on CM5 chip, antibody flowed at 0 to 5 nM; culture supernatant 2

Binder | Kd [1] [pM] | Kd [2] [pM] | Kd [3] [pM]
2G7 antibody (antibody, V domains shown) VH: EVQLQQSGAELVKPGASVKLSCTASGFNIKDYFIHWVNQRTKQGLEWIGRIDPEDGETKYAPKFQGKATLTADTTSNTADLQLSSLTSEDTAVYYCVLYYSRSFDYWGQGTTLTVSS VL: QNVLTQSPAIMSASPGEKVTMTCSASSSVSYMHWYQQKSGTSPKRWIYDTSKLASGVPARFSGSGSGTSYSLTISSMEAEDAATYYCQQWSSNPLTFGAGTKLELKR | 1.18 | 0.204 | 0.0022
3B12 antibody (antibody, V domains shown) VH: EVQLQQSGAEFVKPGASVKLSCRVSGFNIKDYYINWVKQRTEQGLEWIGRIDPEDGETKYAPKFQGKATITADTSSNTANLHLSSLTSADTAVYYCASSGYAFAWFLYWGQGTLVTVSA VL: DILLTQSPAILSVSPGERVSFSCRASQSIGTSIHWYQQRTNGSPRLLIKYASESISGIPSRFSGSGSGTDFTLSINSVESEDIADYYCQQSNRWPFTFGSGTKLEIKR | 176 | 4850 | 6050
2B2 antibody (antibody, V domains shown) VH: VQLQQSGAEFVKRPGASVKLSCRVSGFNIKDYYINWVKQRTEQGLEWIGRIDPEDGETKYAPKFQGKATITADTSSNTANLHLSSLTSADTAVYYCASSGYAFAWFLYWGQGTLVTVSA VL: DILLTQSPAILSVSPGERVSFSCRASQSIGTSIHWYQQRTNGSPRLLIKYASESISGIPSRFSGSGSGTDFTLSINSVESEDIADYYCQQSNRWPFTFGSGTKLEIKR | 359 |  | 2150

From patent US20110250202A1
